This is an account of results in patent US20220267469A1 (LIPUM, published 2022).

For experiment [1], the target named is T1, Human BSSL (bile salt-stimulated lipase), native (human, UniProt P19835 21-753).
T1 construct: Native full-length protein purified from human milk (Astra Hässle AB); also called hBSSL; non-biotinylated human BSSL
T1 sequence: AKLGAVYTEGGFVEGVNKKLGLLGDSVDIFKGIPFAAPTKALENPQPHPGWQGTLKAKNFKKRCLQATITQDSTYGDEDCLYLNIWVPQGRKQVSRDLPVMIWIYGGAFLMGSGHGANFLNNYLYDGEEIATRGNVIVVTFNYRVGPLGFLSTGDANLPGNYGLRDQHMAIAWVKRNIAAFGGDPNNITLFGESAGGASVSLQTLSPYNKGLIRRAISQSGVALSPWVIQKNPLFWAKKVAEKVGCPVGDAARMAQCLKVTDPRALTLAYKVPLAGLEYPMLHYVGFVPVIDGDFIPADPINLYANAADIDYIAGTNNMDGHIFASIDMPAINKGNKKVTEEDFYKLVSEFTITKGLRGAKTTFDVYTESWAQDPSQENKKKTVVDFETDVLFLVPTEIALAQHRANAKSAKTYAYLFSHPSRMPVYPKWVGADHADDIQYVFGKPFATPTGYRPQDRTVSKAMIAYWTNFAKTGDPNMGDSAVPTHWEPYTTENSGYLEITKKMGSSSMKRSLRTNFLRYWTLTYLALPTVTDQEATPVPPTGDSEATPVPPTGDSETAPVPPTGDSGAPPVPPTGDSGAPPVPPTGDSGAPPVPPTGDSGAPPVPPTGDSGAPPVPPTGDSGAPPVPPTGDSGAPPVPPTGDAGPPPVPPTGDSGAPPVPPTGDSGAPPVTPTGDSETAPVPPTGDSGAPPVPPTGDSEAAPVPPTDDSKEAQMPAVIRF
As to the kind of experiment: SPR single cycle kinetics, hIgG4 S228P captured by anti-Fab. The method, then: (§1) Kinetic parameters of the hIgG4 S228P clones were determined by SPR using BIACORE® T200 (GE Healthcare). Single cycle kinetics was used to measure the affinity of the purified hIgG4 molecules to human and mouse BSSL. An anti-Fab antibody (GE Healthcare, #28958325) was immobilized on a CM5 S sensor chip by primary amine coupling using NHS-EDC chemistry. hIgG4 was captured by the anti-Fab antibody, and subsequently, five different concentrations of hBSSL (1:5 dilutions starting from 50 nM) or mBSSL (1:5 dilutions starting from 500 nM) were injected over the surface. The sensor chip surface was regenerated with 10 mM glycine-HCl pH 2.1. For binding to human BSSL, single cycle kinetic data was fitted to a 1:1 binding model and kinetic parameters were retrieved using software BlAevaluation. For mouse BSSL, a steady state analysis was performed by plotting the response level at equilibrium against each concentration, and KD values were retrieved by the BlAevalution software.

Another experiment deals with T2, Mouse BSSL, recombinant (mouse, UniProt Q64285 21-599).
T2 construct: Bought (R&D Systems, Cat. no 5658-CE); also called mBSSL; murine BSSL
T2 sequence: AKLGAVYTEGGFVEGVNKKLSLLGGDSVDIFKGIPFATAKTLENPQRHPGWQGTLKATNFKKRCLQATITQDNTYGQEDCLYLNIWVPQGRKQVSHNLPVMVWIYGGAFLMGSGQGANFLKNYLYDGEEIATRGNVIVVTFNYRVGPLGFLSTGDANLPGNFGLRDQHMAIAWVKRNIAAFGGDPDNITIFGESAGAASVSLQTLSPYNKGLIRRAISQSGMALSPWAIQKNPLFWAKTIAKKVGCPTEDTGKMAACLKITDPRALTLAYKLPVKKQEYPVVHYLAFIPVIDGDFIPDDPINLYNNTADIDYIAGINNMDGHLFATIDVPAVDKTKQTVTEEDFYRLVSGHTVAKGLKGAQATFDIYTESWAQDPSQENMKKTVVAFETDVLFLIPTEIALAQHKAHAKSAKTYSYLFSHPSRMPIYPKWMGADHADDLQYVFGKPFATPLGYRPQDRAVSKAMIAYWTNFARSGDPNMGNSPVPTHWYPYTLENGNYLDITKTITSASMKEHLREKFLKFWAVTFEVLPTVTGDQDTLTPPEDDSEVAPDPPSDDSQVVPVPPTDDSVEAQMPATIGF
As to the kind of experiment: SPR steady state, hIgG4 S228P captured by anti-Fab. As for the experimental part: as §1

B1: S-SL048-12 hIgG4 S228P (antibody, V domains shown)
VH: QVQLVQSGAEVKKPGASVKVSCKASGYTFTSYNMHWVRQAPGQGLEWMGVINPSDGATSYTQKFQGRVTMTRDTSTSTVYMELSSLRSEDTAVYYCARDYYGSSPLGYWGQGTLVTVSS
VL: DIQMTQSPSSLSASVGDRVTITCSASSSISYMHWYQQKPGKAPKLLIYAASRLASGVPSRFSGSGSGTDFTLTISSLQPEDFATYYCHQRSSTSTFGQGTKLEIK
notes: Tested as human IgG4 S228P
What is called Kd is a measure of binding affinity in units of concentration. With B1, the Kd came out at 6.4 nM in experiment [1] and 57 nM in the experiment with Mouse BSSL, recombinant.

B2: S-SL048-45 hIgG4 S228P (antibody, V domains shown)
VH: QVQLVQSGAEVKKPGASVKVSCKASGYTFTSYNMHWVRQAPGQGLEWMGVINPSDGATSYTQKFQGRVTMTRDTSTSTVYMELSSLRSEDTAVYYCARDYYGSSPLGYWGQGTLVTVSS
VL: DIQMTQSPSSLSASVGDRVTITCRASQSISYLHWYQQKPGKAPKLLIYAASRLASGVPSRFSGSGSGTDFTLTISSLQPEDFATYYCHQRSSTPTFGQGTKLEIK
notes: Tested as human IgG4 S228P
In the case of B2, the Kd in experiment [1] is 9.6 nM; with Mouse BSSL, recombinant it was 82 nM.

B3: S-SL048-47 hIgG4 S228P (antibody, V domains shown)
VH: QVQLVQSGAEVKKPGASVKVSCKASGYTFTSYNMHWVRQAPGQGLEWIGVINPGGGYTSYTQKFQGRVTMTRDTSTSTVYMELSSLRSEDTAVYYCARDYYGSSPLGYWGQGTLVTVSS
VL: DIQMTQSPSSLSASVGDRVTITCSASPSISYMNWYQQKPGKAPKLLIYATSRLQSGVPSRFSGSGSGTDFTLTISSLQPEDFATYYCQQRSSTPTFGQGTKLEIK
notes: Tested as human IgG4 S228P
As to B3, the dissociation constant (Kd) in experiment [1] turned out to be 8.5 nM.

B4: S-SL048-89 hIgG4 S228P (antibody, V domains shown)
VH: QVQLVQSGAEVKKPGASVKVSCKASGYTFTSYNMHWVRQAPGQGLEWMGVINPSSGSTSYTQKFQGRVTMTRDTSTSTVYMELSSLRSEDTAVYYCARDYYGSSPLGYWGQGTLVTVSS
VL: DIQMTQSPSSLSASVGDRVTITCRASPSISYLNWYQQKPGKAPKLLIYATSRLPSGVPSRFSGSGSGTDFTLTISSLQPEDFATYYCQQRSSNPTFGQGTKLEIK
notes: Tested as human IgG4 S228P
As to B4, in experiment [1], the Kd was found to be 6 nM.

B5: S-SL048-110 hIgG4 S228P (antibody, V domains shown)
VH: QVQLVQSGAEVKKPGASVKVSCKASGYTFTSYNMHWVRQAPGQGLEWMGVINPGDGATSYNQKFKGRVTMTRDTSTSTVYMELSSLRSEDTAVYYCARDYYGSSPLGYWGQGTLVTVSS
VL: DIQMTQSPSSLSASVGDRVTITCSASQSISYLHWYQQKPGKAPKLLIYAASRLASGVPSRFSGSGSGTDFTLTISSLQPEDFATYYCHQRSSTPTFGQGTKLEIK
notes: Tested as human IgG4 S228P
Turning to B5, the dissociation constant Kd in experiment [1] was determined as 5.9 nM; in the experiment with Mouse BSSL, recombinant, 168 nM.

B6: S-SL048-75 hIgG4 S228P (antibody, V domains shown)
VH: QVQLVQSGAEVKKPGASVKVSCKASGYTFTSYNMHWVRQAPGQGLEWMGVIYPGGGYTSYAQKFKGRVTMTRDTSTSTVYMELSSLRSEDTAVYYCARDYYGSSPLGYWGQGTLVTVSS
VL: DIQMTQSPSSLSASVGDRVTITCRASQSISYLNWYQQKPGKAPKLLIYATSNLQSGVPSRFSGSGSGTDFTLTISSLQPEDFATYYCHQRSSSPTFGQGTKLEIK
notes: Tested as human IgG4 S228P
With B6, the dissociation constant (Kd) in the experiment with Mouse BSSL, recombinant stood at 164 nM.
